Columns and labels:
Type in all cases: cell-based
[1] = system: primary rabbit corneal epithelial cells; assay: in vitro wound healing assay (scratch wound), artemin; details: 100 ng/ml; within 6 h; control about 20%
Experimental: For in vitro wound healing assays primary corneal epithelial cells and cells from the corneal epithelial cell line were seeded at a density of 5×10^5 onto 60 mm plastic dishes with 2 mm grid (Sarstedt, Numbrecht, Germany) and cultured for 2 days until subconfluency. For experiments with artemin primary cultured rabbit corneal epithelial cells were used. These cells had been isolated with Dispase (1,2 U/ml) and trypsin/EDTA. Rabbit cells had been cultured in medium 500 with additives (Cascade Biologies).
The cell layer was injured under the microscope by inducing several parallel scratches with a soft plastic cell scrubber (Falcon, Becton and Dickinson, Heidelberg, Germany). The tip of the scrubber was cut and measured about 1 mm and consequently the width of the scratch in the cell layer was also about 1 mm. Selected areas in the dishes were marked with a very fine marker pen and consecutive images were taken at different time points at 5×magnification under an inverted phase contrast microscope (Axiovert 25, Zeiss, Jena, Germany) equipped with a video camera. […] For each condition four representative areas were evaluated within three dishes. […] 18 hours later the mean diameter of the same scratch was calculated again and expressed in percent of the diameter at the beginning of the experiment.

[2] = system: primary rabbit corneal epithelial cells; assay: single cell clonal growth assay (colony formation, clonal proliferation); details: 250 ng/ml
Source text: In order to evaluate the effect of GDNF on corneal proliferation, recombinant human GDNF was used (R&D, Minneapolis, Minn., USA). For the evaluation of the effect on corneal epithelial proliferaton a single cell clonal growth model was utilized which allows to determine the effect of the given growth factor on both colony formation as well as clonal expansion (Kruse et al., 1991). New Zealand white rabbits were housed and treated according to the ARVO Resolution of Animals in Research and under observation of German Federal Laws and the laws of the State of Baden-Württemberg. Prior to sacrifice with an intravenous overdose of pentobarbital, they received an intramuscular injection of xylazine hydrochloride and ketamine hydrochloride. The details of the clonal growth assay are described in Kruse et al. (1991). 5000 viable cells were seeded in each 16 mm dish in serum-free medium MCDB 151 with a supplement (S) of insulin (5 μg/ml), transferrin (5 μg/ml), selenium (5 ng/ml) and hydrocortisone (5 μg/ml) (all from Sigma, Deisenhofen, Germany). […] This quantification was facilitated by the use of dishes which contained a grit on the bottom which is roughly 2 mm wide (from Sarstedt, Newton, N.C., USA). For data collection the entire surface area of four randomly selected dishes for each condition was screened. Furthermore, the number of cells per colony was determined in 75 randomly selected colonies for each condition. Furthermore, the total number of cells/dish was calculated in order to carry out an evaluation for artemin. In order to stimulate the cellular proliferation, GDNF (50 or 200 ng/ml) or artemin (250 ng/ml) was added to the medium. In order to estimate the rate of proliferation after 12 days (a time when neighbouring colonies started to grow into each other and, therefore, prevented numerical quantification) dishes were fixed in −20° C. methanol and stained with methylene blue.
All experiments examining the effect of GDNF on corneal proliferation were performed in triplicate with cells from different donors. The influence of growth factor on colony formation, colony size and cell number was studied using one-way analysis of variance. […] Student's t-test was employed to determine which differences were significant after analysis of variance.

[3] = system: FAK, Pyk2, cRaf, MEK1, Erk 1 and 2, Elk, RSK; assay: western blot of phosphorylated intracellular signaling proteins in corneal epithelial cells; details: 250 ng/ml artemin for 10, 20, 40 and 60 minutes; human corneal epithelial cells

B1: artemin: GDNF family member, also referred to as enovin or neublastin (SEQ ID NO 5) (protein)
chain: CRLRSQLVPVRALGLGHRSDELVRFRFCSGSCRRARSPHDLSLASLLGAGALRPPPGSRPVSQPCCRPTRYEAVSFMDVNSTWRTVDRLSATACGC
modifications: artemin
gap in the cell monolayer filled [1]: 29±8%
total number of cells per dish ([2]; control 200±98 cells, p<0.001): significantly increased
total number of colonies ([2]; day 6, control 40±20): 79±38
phosphorylated Erk 1 and 2 [3]: gradually increased
phosphorylated MEK [3]: increasing amount
